The record followed here is publication doi:10.1101/2024.02.23.581399 (bioRxiv, 2024).

Non-standard residues stand in square brackets, D forms with d. No end group written: not given here. pT = C[C@@H](OP(=O)(O)O)[C@H](N)C(=O)O; pS = N[C@@H](COP(=O)(O)O)C(=O)O

The assay addresses T1, PLK1PBD (human, UniProt P53350 370-603).
T1 construct: PLK1, human, residues 370-603 (Polo-box domain); Labelled PLK1PBD without a tag in the amylose pull-downs and the crystal structures; also called PLK1_(370-603); Polo-Box Domain; source: E. coli BL21 Gold (DE3), purified (HisTrap, SEC)
Briefly: crystal structure; PLK1PBD mixed with two times molar excess of phospho-peptide, sitting drop, 18°C. Conditions: both partners purified.

T1 sequence (P53350 370-603): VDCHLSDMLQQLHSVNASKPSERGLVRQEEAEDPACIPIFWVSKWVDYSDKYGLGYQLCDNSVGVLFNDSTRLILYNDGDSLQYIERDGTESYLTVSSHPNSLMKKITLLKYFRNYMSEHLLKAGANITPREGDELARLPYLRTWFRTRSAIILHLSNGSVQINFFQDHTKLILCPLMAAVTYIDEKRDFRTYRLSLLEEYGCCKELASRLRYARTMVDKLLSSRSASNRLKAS

B1: Mis18BP1_(72-82) phospho-peptide (KNIFQSTphMLTE) (peptide)
peptide: KNIFQS[pT]MLTE
notes: Mis18BP1, human, residues 72-82; also called T78ph peptide; Mis18BP1_(T78ph); source: synthetic peptide (Peptide Synthetics)
For B1, the binding result was “binds”.

B2: Mis18α_(49-55) phospho-peptide (ASMWSSphM) (peptide)
peptide: ASMWS[pS]M
notes: also called S54ph peptide; Mis18α_(S54ph); source: synthetic peptide (Peptide Synthetics)
Consider B2, for which the binding result was “binds”.
